Holding throughout (experiment): MST
Common to all, as to conditions: MST: 100 nM AF647 oligo (90 C 2 min, cooled) mixed 1:1 with ligand in PBS, RT, 5 min; EMSA: 1 uM AF546 oligo, UV 254 nm 15 min on ice, 4-16% NativePAGE, 0.5x …

The target in data set [1] is native HDL (DGUC-HDL, apoA-I-containing lipoprotein particle) (Homo sapiens) (UniProt P02647).
For data set [2] the target is unchanged. This is another data set of the same source.
Data set [3] has the same target. The source holds these as a separate data set.
For data set [4] the target is unchanged. This is another data set of the same source.

Sequence of native HDL (DGUC-HDL, apoA-I-containing lipoprotein particle) (Homo sapiens) (P02647 whole entry): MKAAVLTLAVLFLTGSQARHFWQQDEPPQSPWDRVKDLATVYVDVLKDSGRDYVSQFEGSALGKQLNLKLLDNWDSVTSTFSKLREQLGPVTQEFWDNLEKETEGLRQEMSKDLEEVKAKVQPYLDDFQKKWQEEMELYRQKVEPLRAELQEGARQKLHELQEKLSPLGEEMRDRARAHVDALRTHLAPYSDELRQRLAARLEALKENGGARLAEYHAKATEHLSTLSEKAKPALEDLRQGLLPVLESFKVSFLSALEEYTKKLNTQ

With “GCAUUGGUGGUUCAGUGGUAGAAUUCUCGC / GCGAGAAUUCUACCACUGAACCACCAAUGC [dsRNA-tDR-GlyGCC-30]”, in data set [1], the Kd (commonly the free concentration of one partner at which half of the binding sites on the other are occupied at equilibrium, for simple one-to-one binding) amounted to 0.972 µM. Take “GCAUUGGUGGUUCAGUGGUAGAAUUCUCGC [tDR-GlyGCC-30 (5'-tRH-30)]”: the dissociation constant (Kd) in data set [2] worked out at 0.054 µM; in data set [3], 0.259 µM; in data set [1], 0.153 µM; in data set [4], 0.016 µM. On to “CCGGCUAGCUCAGUCGGUAGAGCAUGAGAC [tDR-LysCTT-30]”, for which the Kd in data set [3] was determined as 3.8 µM. “CUGCCACGCGGGAGGCCCGGGUUCGAUUCC [tDR-GlyGCC-3'-tRH-30]” yielded a Kd in data set [4] of 0.085 µM. The same measure, in the same setting: the value for “UGGUAGAAUUCUCGC [tDR-GlyGCC-5'-tRH-3'-tRF-15]” was 0.124 µM. Sequence “GCGCCGCUGGUGUAGUGGUAUCAUGCAAGA [tDR-GlyCCC-30]” came in with a Kd in data set [3] of 34 µM. For “GCAUUGGUGGUUCAG [tDR-GlyGCC-5'-tRH-5'tRF-15]”, in data set [4], the Kd came out at 0.115 µM.

The record behind these values is article PMC9133651, “Elucidation of physico-chemical principles of high-density lipoprotein–small RNA binding interactions”.
